Measured values reported in patent US20040228866A1, “Suppressor genes” (Ludwig Institute for Cancer Research, priority 2000, published 2004).

Assays:
[1] = system: U2OS and MCF7 cells; experiment: Apoptosis by FACS in U2OS and MCF7 cells expressing wild-type p53, with or without cisplatin; assay type: cell-based, human; conditions: for effect on cisplatin-induced apoptosis: transfected before cisplatin, FIGS. 7B and 7D
Experimental: The transfected cells were gated, and the apoptotic cells identified by FACS as described in Example 6.
Before exposure to cisplatin (5 and 3 μg/ml respectively), U2OS and MCF7 cells were transfected with plasmids encoding HPV16 E6, iASPP, or 53BP2. Thirty hours later, cells were harvested and analysed as above.
Fragments from the 5′ ends of ASPP1, ASPP2 and iASPP cDNA were cloned into a mammalian expression vector in an antisense orientation and their ability to inhibit the protein synthesis determined in vitro. The antisense nucleic acid molecules were amplified by PCR on the respective plasmid clones using primers spanning the following nucleotide regions (relative to the initial ATG): −74 to 923; −253 to 839 and −37 to 536 for ASPP1, ASPP2 and iASPP respectively. The amplified segments were purified with the QIAquick PCR purification kit (QIAGEN) and ligated in the pcDNA3.1/V5-His TOPO vector (Invitrogen) according to the manufacturer's instructions.
U2OS and MCF-7 cells were transfected with the various expression plasmids prior to the treatment with cisplatin and analyzed using FACS as described above.
To determine the anti-apoptotic role of iASPP, both U2OS and MCF-7 cells were transfected with antisense iASPP and cells analyzed as described above. […] A small increase in apoptotic cells was consistently detected (FIG. 7D).

[2] = target: T1, p53 (Homo sapiens, UniProt P04637); experiment: Transient luciferase reporter assay of p53 transactivation function in Saos-2 cells; assay type: cell-based; conditions: for effect on ASPP stimulation of p53 transactivation function on the Bax promoter: co-expressed with p53 and ASPP1 or ASPP2
T1 construct: expressed in transfected cells
Experimental: (§1) The amount of luciferase expression was determined as previously described in Samuels-Lev et al. (Mol. Cell 8:781-94, 2001, herein incorporated by reference).
(§2) The amount of transactivation function was determined as described in Example 4.
(§3) To determine the amount of protein expression, Saos-2 cells (5×10^5) were plated 24 hours prior to transfection in 6 cm dishes. […] To determine the amount of gene activation, after transfection, the cells were lysed in Reporter Lysis Buffer 16-24 hours post-wash and assayed using the Luciferase Assay kit (Promega, Wis.). The fold activation of a particular reporter was determined by the activity of the transfected plasmid above the activity of vector alone.
(§4) The expression level of transfected proteins was detected using 40 μg of the respective lysates using the antibodies V5, DX.5410, DO1, 4A4 and p73. […] Results were derived from at least three independent experiments.

[3] = target: T1, p53; experiment: Co-immunoprecipitation with p53 in transfected Saos-2 cells; assay type: binding
Experimental: The cells were lysed in NP40 lysis buffer and 1000 μg of lysate immunoprecipitated with antibodies to iASPP bound to Protein G beads.

[4] = system: p53; experiment: Transient luciferase reporter assay of p53 transactivation function in Saos-2 cells; assay type: cell-based; conditions: expressed without p53, FIG. 8B
Experimental: as §1, §2, §3, §4

[5] = system: Saos-2 cells; experiment: Apoptosis by flow cytometry (CD20-gated, sub-G1 DNA content) in transfected Saos-2 cells; assay type: cell-based
Experimental: Apoptosis was identified by the expression of the co-transfected cell surface marker CD20, as described in Samuels-Lev et al. (Mol. Cell 8:781-94, 2001, herein incorporated by reference).
The number of apoptotic cells was determined using the methods described in Example 6.
Cells (10^6) were plated 24-48 hours prior to transfection in 10 cm plates. Cells were grown in DMEM supplemented with 10% FCS and transfected with 2 μg of a plasmid expressing CD20 as a transfection marker. Increasing amounts of ASPP1 and ASPP2 were transfected (7.5 μg, 15 μg and 25 μg). 36 hours after the transfection, both attached and floating cells were harvested and analysed using flow cytometry as follows. The transfected cells were gated based on the expression of CD20. The percentage of apoptotic cells was measured by the accumulation of cells with a sub-G1 DNA content derived from at least three individual experiments.
The transfected cells were analyzed by flow cytometry as described in Example 6.

[6] = system: MCF-7 cells; experiment: Cellular resistance to the cytotoxic effect of cisplatin in MCF-7 cells; assay type: cell-based, human; conditions: iASPP-expressing versus non-expressing cells, FIG. 10B
Description: Many chemotherapy drugs are DNA-damage agents and induce apoptosis via p53-dependent pathway. […] The cellular resistance to the cytotoxic effect of cisplatin were compared between iASPP-expressing and non-expressing iASPP MCF-7 cells. Expression of iASPP enhanced the cellular resistance by about 2.5 fold (FIG. 10B). Such an increase in cellular resistance to cisplatin is significant with respect to cancer treatment.

[7] = system: rat embryo fibroblasts (REFs); experiment: Transformation of rat embryo fibroblasts with E7; assay type: cell-based; conditions: co-transfected with E7, FIG. 10A

T1 sequence (P04637 whole entry): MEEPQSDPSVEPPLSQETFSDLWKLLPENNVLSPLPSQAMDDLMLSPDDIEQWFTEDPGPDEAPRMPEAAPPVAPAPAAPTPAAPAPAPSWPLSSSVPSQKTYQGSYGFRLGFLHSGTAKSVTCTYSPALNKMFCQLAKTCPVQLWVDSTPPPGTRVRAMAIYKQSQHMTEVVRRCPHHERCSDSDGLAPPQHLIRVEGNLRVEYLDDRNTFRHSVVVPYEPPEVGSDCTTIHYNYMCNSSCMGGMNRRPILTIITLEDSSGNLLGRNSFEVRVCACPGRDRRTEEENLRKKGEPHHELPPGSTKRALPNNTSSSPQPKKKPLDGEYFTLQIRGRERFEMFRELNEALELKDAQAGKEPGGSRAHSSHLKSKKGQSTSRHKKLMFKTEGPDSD

B1: E6: viral oncoprotein from human papilloma virus that binds p53 and targets it for degradation (protein, UniProt P03126 1-158, looked up)
Protein E6: MHQKRTAMFQDPQERPRKLPQLCTELQTTIHDIILECVYCKQQLLRREVYDFAFRDLCIVYRDGNPYAVCDKCLKFYSKISEYRHYCYSLYGTTLEQQYNKPLCDLLIRCINCQKPLCPEEKQRHLDKKQRFHNIRGRWTGRCMSCCRSSRTRRETQL
[1]; cisplatin 5 and 3 μg/ml (U2OS, MCF7), thirty hours
  percentage of transfected cells that die of apoptosis after cisplatin: below 15%
[1]; co-expression
  effect on apoptosis induced by ASPP1 or ASPP2: inhibited the apoptosis induced by ASPP1 or ASPP2
[1]
  effect on cisplatin-induced apoptosis: reduced the percentage of apoptotic cells to half

B2: ASPP2/bBP2: 1005 amino acid polypeptide, amino acids 123-1128 of ASPP2 (protein)
chain: RMDLTLAELQEMASRQQQQIEAQQQLLATKEQRLKFLKQQDQRQQQQVAEQEKLKRLKEIAENQEAKLKKVRALKGHVEQKRLSNGKLVEEIEQMNNLFQQKQRELVLAVSKVEELTRQLEMLKNGRIDSHHDNQSAVAELDRLYKELQLRNKLNQEQNAKLQQQRECLNKRNSEVAVMDKRVNELRDRLWKKKAALQQKENLPVSSDGNLPQQAASAPSRVAAVGPYIQSSTMPRMPSRPELLVKPALPDGSLVIQASEGPMKIQTLPNMRSGAASQTKGSKIHPVGPDWSPSNADLFPSQGSASVPQSTGNALDQVDDGEVPLREKEKKVRPFSMFDAVDQSNAPPSFGTLRKNQSSEDILRDAQVANKNVAKVPPPVPTKPKQINLPYFGQTNQPPSDIKPDGSSQQLSTVVPSMGTKPKPAGQQPRVLLSPSIPSVGQDQTLSPGSKQESPPAAAVRPFTPQPSKDTLLPPFRKPQTVAASSIYSMYTQQQAPGKNFQQAVQSALTKTHTRGPHFSSVYGKPVIAAAQNQQQHPENIYSNSQGKPGSPEPETEPVSSVQENHENERIPRPLSPTKLLPFLSNPYRNQSDADLEALRKKLSNAPRPLKKRSSITEPEGPNGPNIQKLLYQRTTIAAMETISVPSYPSKSASVTASSESPVEIQNPYLHVEPEKEVVSLVPESLSPEDVGNASTENSDMPAPSPGLDYEPEGVPDNSPNLQNNPEEPNPEAPHVLDVYLEEYPPYPPPPYPSGEPEGPGEDSVSMRPPEITGQVSLPPGKRTNLRKTGSERIAHGMRVKFNPLALLLDSSLEGEFDLVQRIIYEVDDPSLPNDEGITALHNAVCAGHTEIVKFLVQFGVNVNAADSDGWTPLHCAASCNNVQVCKFLVESGAAVFAMTYSDMQTAADKCEEMEEGYTQCSQFLYGVQEKMGIMNKGVIYALWDYEPQNDDELPMKEGDCMTIIHREDEDEIEWWWARLNDKEGYVPRNLLGLYPRIKPRQRSLA
[2]; versions of ASPP2 co-expressed with p53, FIG. 3
  stimulation of the transactivation function of p53: about 2 fold
[3]
  interaction with p53 by immunoprecipitation and western blot: interacted with p53 in vivo

B3: Ikb: the inhibitor of p65 Rel A (protein, UniProt P25963 1-317, looked up)
NF-kappa-B inhibitor alpha: MFQAAERPQEWAMEGPRDGLKKERLLDDRHDSGLDSMKDEEYEQMVKELQEIRLEPQEVPRGSEPWKQQLTEDGDSFLHLAIIHEEKALTMEVIRQVKGDLAFLNFQNNLQQTPLHLAVITNQPEIAEALLGAGCDPELRDFRGNTPLHLACEQGCLASVGVLTQSCTTPHLHSILKATNYNGHTCLHLASIHGYLGIVELLVSLGADVNAQEPCNGRTALHLAVDLQNPDLVSLLLKCGADVNRVTYQGYSPYQLTWGRPSTRIQQQLGQLTLENLQMLPESEDEESYDTESEFTEFTEDELPYDDCVFGGQRLTL
[2]; 50 ng co-expressed with p53
  inhibition of the transactivation function of p53 on the Bax promoter: very little inhibition
[2]; FIG. 8C, Ikb even in the presence of ASPP2
  transactivation function of p53 on the mdm2 promoter: hardly decreased
[2]
  effect on ASPP stimulation of p53 transactivation function on the Bax promoter: significantly decreased ASPP2-mediated stimulation
[4]
  inhibition of Bax promoter reporter activity: did not show any detectable inhibition
[5]; Example 11, p53+ASPP2 30%
  percentage of apoptotic cells, co-expressed with p53 and ASPP2: 16%
[5]; Example 11, p53 alone […]%
  percentage of apoptotic cells, co-expressed with p53: 11%
[5]; Example 11, vector alone 4.6%
  percentage of apoptotic cells, expressed alone: 7.2%

B4: ASPP2/53BP2: 528 amino acid C-terminal polypeptide, amino acids 600-1128 of ASPP2 (protein)
chain: KPQTVAASSIYSMYTQQQAPGKNFQQAVQSALTKTHTRGPHFSSVYGKPVIAAAQNQQQHPENIYSNSQGKPGSPEPETEPVSSVQENHENERIPRPLSPTKLLPFLSNPYRNQSDADLEALRKKLSNAPRPLKKRSSITEPEGPNGPNIQKLLYQRTTIAAMETISVPSYPSKSASVTASSESPVEIQNPYLHVEPEKEVVSLVPESLSPEDVGNASTENSDMPAPSPGLDYEPEGVPDNSPNLQNNPEEPNPEAPHVLDVYLEEYPPYPPPPYPSGEPEGPGEDSVSMRPPEITGQVSLPPGKRTNLRKTGSERIAHGMRVKFNPLALLLDSSLEGEFDLVQRIIYEVDDPSLPNDEGITALHNAVCAGHTEIVKFLVQFGVNVNAADSDGWTPLHCAASCNNVQVCKFLVESGAAVFAMTYSDMQTAADKCEEMEEGYTQCSQFLYGVQEKMGIMNKGVIYALWDYEPQNDDELPMKEGDCMTIIHREDEDEIEWWWARLNDKEGYVPRNLLGLYPRIKPRQRSLA
modifications: left off: small tags and cut ends
notes: 528 amino acid C-terminal polypeptide, amino acids 600-1128 of ASPP2
[2]; co-expressed with p53, FIG. 3
  reduction of the transactivation function of p53: about 50%
[2]
  effect on ASPP stimulation of p53 transactivation function on the Bax promoter: inhibited ASPP2 stimulation
[2]; co-expression with p53
  stimulation of p21waf1 and PG synthetic promoters: slight stimulation
  stimulation of the promoter activity of mdm2 and cyclin G: failed to stimulate
[5]; p53, ASPP2 and ASPP2/53BP2 all co-expressed, FIG. 4C
  apoptotic cells: 30%
[1]
  effect on cisplatin-induced apoptosis: inhibited cisplatin-induced apoptosis to a similar extent as E6

B5: iASPP: Inhibitor of Apoptosis Stimulating Proteins, p65 rel A binding protein of 315 amino acids, SEQ ID NO: 6 (protein)
chain: MWMKDPVARPLSPTRLQPALPPEAQSVPELEEVARVLAEIPRPLKRRGSMEQAPAVALPPTHKKQYQQIISRLFHRHGGPGPGGRSQSCPPSLRDLRPGQGPLLLPHQLPFHRPAPSQSSPPEQPQSMEMRSVLRKAGSPRKARRARLNPLVLLLDAALTGELEVVQQAVKEMNDPSQPNEEGITALHNAICGANYSIVDFLITAGANVNSPDSHGWTPLHCAASCNDTVICMALVQHGAAIFATTLSDGATAFEKCDPYREGYADCATYLADVEQSMGLMNSGAVYALWDYSAEFGDELSFREGESVTVLRRDGPEETDWWWAALHGQEGYVPRNYFGLFPRVKPQRSKV
modifications: homo sapiens
[2]
  effect on ASPP stimulation of p53 transactivation function on the Bax promoter: decreased or eliminated the ability
[5]; co-expressed with p53
  effect on the apoptotic function of wild type p53: small inhibitory effect
[5]; co-expressed with p53 and ASPP1 or ASPP2
  effect on the enhancement of p53 apoptotic function by ASPP1 and ASPP2: decreased or inhibited the enhanced apoptotic function of p53
[5]; no p53 co-expressed
  apoptosis when expressed alone: did not induce apoptosis on its own
[1]
  effect on cisplatin-induced apoptosis: inhibited cisplatin-induced apoptosis to a similar extent as E6
[6]
  enhancement of cellular resistance to cisplatin: about 2.5 fold
[7]
  transforming function of E7: enhanced the transforming function of E7 significantly
[3]
  interaction with p53 by immunoprecipitation and western blot: interacted with p53
